# ± gives the half width of the 95% confidence interval.
# Legend:
# [1] = folding stability dG unfold (combined trypsin and chymotrypsin); higher = more stable
# How it was run: (§1)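 Bayesian fitting of sequencing counts gave K50 for each design. Unfolding free energy followed by setting this against a sequence-predicted unfolded-state K50 and a shared folded-state K50, either per protease or with trypsin and chymotrypsin combined. The designs, under 80 residues and lacking cysteine, were digested in a PA-tagged cDNA display format at 11 threefold-diluted protease concentrations and without protease, and only those with AlphaFold2 dimer inter-PAE above 15 were kept.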
# [2] = folding stability dG unfold from chymotrypsin proteolysis; higher = more stable
# How it was run: as §1
# [3] = folding stability dG unfold from trypsin proteolysis; higher = more stable
# How it was run: as §1
sequence,measurement,setting,value
SAEVELKPDEELEFEFPDSQVKISYVPGTGVITTTTTFTTPDGTVVYKTTTIKKEGKEVTSTTVSLAEASSA [r9_881_JUSTAS],folding stability dG unfold,[1],1.17 ± 0.12 kcal/mol
same,folding stability dG unfold,[2],1.52 ± 0.067 kcal/mol
same,folding stability dG unfold,[3],0.389 ± 0.054 kcal/mol
SAEVRPDEVLRIEVRLRVGDVEFTAEAEIPAGLSEEEIREAVERIREEAERLAERLRRLPPLRPPEELLSAG [r14_70_TrMRF],folding stability dG unfold,[1],2.64 ± 0.43 kcal/mol
same,folding stability dG unfold,[2],2.96 ± 0.14 kcal/mol
same,folding stability dG unfold,[3],1.63 ± 0.086 kcal/mol
SAEVRTVTDANGTQRTVTKTPDGTETVTTRPVPAPPPPPTVTVEVEYDAENGTLTVRLPDGSKLEFTFEDSA [r9_56_TrROS_Hall],folding stability dG unfold,[1],0.742 ± 0.26 kcal/mol
same,folding stability dG unfold,[2],0.982 ± 0.046 kcal/mol
same,folding stability dG unfold,[3],-0.118 ± 0.23 kcal/mol
SAEVRVEIVEVDEERGVIRIEITVPEDLPEEEILEELARRLEELARERGYEVRIERREDGTYRIEIRFPSAG [r14_865_TrROS_Hall],folding stability dG unfold,[1],4.25 ± 0.11 kcal/mol
same,folding stability dG unfold,[2],4.26 ± 0.071 kcal/mol
same,folding stability dG unfold,[3],4.18 ± 0.16 kcal/mol
SAEVVIVIEPGMTEEQVRARLKAALEEALRKGKKVKKIVVKSEEAARRIRDLLKELGVPEEDVEVVLLPSAG [r14_589_TrROS_Hall],folding stability dG unfold,[1],4.93 ± 0.36 kcal/mol
same,folding stability dG unfold,[2],3.45 ± 0.17 kcal/mol
same,folding stability dG unfold,[3],4.92 ± 0.51 kcal/mol
SAEYTPVGPNEDAEVWEVPNLGKLFTIDPKDDVVEITEVHFDDGDLSPHPHTVRVDVPEEDRDRLRDLLSAG [r14_245_TrMRF],folding stability dG unfold,[1],-0.213 ± 0.14 kcal/mol
same,folding stability dG unfold,[2],-1.11 ± 0.58 kcal/mol
same,folding stability dG unfold,[3],0.0643 ± 0.06 kcal/mol
SAGAEVEVVELTDEEIEALAKELNPDVTIEVVVVRVPPPPEKVEVRDPETGETVTLTVTPDGEIRAEKSAGG [r19_70_TrROS_Hall],folding stability dG unfold,[1],0.0774 ± 0.35 kcal/mol
same,folding stability dG unfold,[2],-0.235 ± 0.16 kcal/mol
same,folding stability dG unfold,[3],0.624 ± 0.091 kcal/mol
SAGAKVEIEFEGNKVTAKIEFGEGTVTVEGEVKLLPDGSALFKPKIYKDGKKIGEFTVLLDLPEGAEVLSAG [r5_221_TrMRF],folding stability dG unfold,[1],1.84 ± 0.16 kcal/mol
same,folding stability dG unfold,[2],1.95 ± 0.057 kcal/mol
same,folding stability dG unfold,[3],1.37 ± 0.062 kcal/mol
SAGAMLTLELTVEADSPEEAIERAKEIAKELIKKEYPELSKNTKIEKITAEPTPGPEVKVTITIKIDPGSAG [r5_320_JUSTAS],folding stability dG unfold,[1],4.32 ± 0.22 kcal/mol
same,folding stability dG unfold,[2],3.61 ± 0.18 kcal/mol
same,folding stability dG unfold,[3],4.42 ± 0.17 kcal/mol
SAGAMPPVVEVAPVEGEGLLRVTVPVPTSDVVRVTVDLGDRRLEYTLPRDASLEVSTADAEVRVAVELVSAG [r14_96_JUSTAS],folding stability dG unfold,[1],0.638 ± 0.056 kcal/mol
same,folding stability dG unfold,[2],0.639 ± 0.1 kcal/mol
same,folding stability dG unfold,[3],0.5 ± 0.031 kcal/mol
SAGAMVTHTITVKIDPSELDKLEEILEKIKNSGPVKAIEPVSFEPGTGVYTVKVTADPATIKLVEEALKSAG [r5_193_JUSTAS],folding stability dG unfold,[1],4.24 ± 0.069 kcal/mol
same,folding stability dG unfold,[2],4.14 ± 0.062 kcal/mol
same,folding stability dG unfold,[3],4.51 ± 0.28 kcal/mol
SAGARIVPIKINLKWNPDNGQLEVPIEMYVNNHPVEMEARFDPEDPGKIEFEITYPGNGQEIRASIPLPSAG [r14_178_TrROS],folding stability dG unfold,[1],0.467 ± 0.26 kcal/mol
same,folding stability dG unfold,[2],-0.0473 ± 0.31 kcal/mol
same,folding stability dG unfold,[3],0.951 ± 0.098 kcal/mol
SAGATATPPAVRVATARLPLPFGTGTEVTVTTYSDGSATVTARFPDGVVATAFVSPDGSAVVTVAPAGGSAG [r5_168_TrMRF],folding stability dG unfold,[1],2.41 ± 0.061 kcal/mol
same,folding stability dG unfold,[2],2.955 ± 0.024 kcal/mol
same,folding stability dG unfold,[3],0.992 ± 0.064 kcal/mol
SAGATPTTLSFTDPEGKKIANVTVTVLPGGRQEASITNSDSNESYTAEYDPATGTWTLTFPDGTTLTVGSAG [r5_809_JUSTAS],folding stability dG unfold,[1],1.58 ± 0.059 kcal/mol
same,folding stability dG unfold,[2],1.75 ± 0.032 kcal/mol
same,folding stability dG unfold,[3],1.15 ± 0.039 kcal/mol
SAGATTTTTTTNPADDTTVTTTTTTTGNTSTVTSTSTSGSTSTLTTTTVTFTSPTTTTTTTTTTPVPSSAGG [r19_292_JUSTAS],folding stability dG unfold,[1],0.264 ± 0.074 kcal/mol
same,folding stability dG unfold,[2],-0.45 ± 0.22 kcal/mol
same,folding stability dG unfold,[3],0.679 ± 0.03 kcal/mol
SAGAVELPPGVAAVERDPETGVVTATYPDGTVTRYTVSTEWDPTVGRTRPRVTVEVWSPDSRISTRDLPSAG [r5_109_JUSTAS],folding stability dG unfold,[1],0.527 ± 0.12 kcal/mol
same,folding stability dG unfold,[2],0.799 ± 0.13 kcal/mol
same,folding stability dG unfold,[3],0.119 ± 0.31 kcal/mol
SAGAVRPDEPVTVTVTVEVDPETGFVRVTFDAAAPDGITVEALIPPDGPVLVRVRRPGSRETVEVVLPASAG [r5_55_TrMRF],folding stability dG unfold,[1],3.06 ± 0.072 kcal/mol
same,folding stability dG unfold,[2],3.31 ± 0.045 kcal/mol
same,folding stability dG unfold,[3],2.57 ± 0.13 kcal/mol
SAGDAEEIAKKIEEAAREEFAARLGYPDLEILKVEVLEVDPVTGRVRVRVTVRLPDGRLLEAEFEVPVASAG [r5_20_TrMRF],folding stability dG unfold,[1],3.65 ± 0.065 kcal/mol
same,folding stability dG unfold,[2],3.41 ± 0.06 kcal/mol
same,folding stability dG unfold,[3],3.83 ± 0.06 kcal/mol

# From the supplement of paper PMC12764529
